Data from the supplement of paper PMC11246515.
± gives the standard deviation of the averaged measurements.

Assay: total protein half-life in vivo (active degradation + dilution); higher = more stable protein
[1] = E. coli NCM3722 delta-clpP delta-lon delta-hslV, growth: N-lim chemostat, doubling time 6 h
[2] = E. coli NCM3722 delta-clpP, growth: N-lim chemostat, doubling time 6 h
[3] = E. coli NCM3722 delta-hslV, growth: N-lim chemostat, doubling time 6 h
[4] = E. coli NCM3722 delta-lon, growth: N-lim chemostat, doubling time 6 h
[5] = E. coli NCM3722 delta-smpB, growth: N-lim chemostat, doubling time 6 h
[6] = wild type E. coli NCM3722, growth: C-lim chemostat, doubling time 3 h
[7] = wild type E. coli NCM3722, growth: C-lim chemostat, doubling time 6 h
[8] = wild type E. coli NCM3722, growth: C-lim chemostat, doubling time 12 h
[9] = wild type E. coli NCM3722, growth: N-lim chemostat, doubling time 6 h
[10] = wild type E. coli NCM3722, growth: N-lim chemostat, doubling time 12 h
[11] = wild type E. coli NCM3722, growth: P-lim chemostat, doubling time 6 h
[12] = wild type E. coli NCM3722, growth: P-lim chemostat, doubling time 12 h

Sequence | total protein half-life in vivo [1] [h] | total protein half-life in vivo [2] [h] | total protein half-life in vivo [3] [h] | total protein half-life in vivo [4] [h] | total protein half-life in vivo [5] [h] | total protein half-life in vivo [6] [h] | total protein half-life in vivo [7] [h] | total protein half-life in vivo [8] [h] | total protein half-life in vivo [9] [h] | total protein half-life in vivo [10] [h] | total protein half-life in vivo [11] [h] | total protein half-life in vivo [12] [h]
MAHIVTLNTPSREDWLTQLADVVTDPDELLRLLNIDAEEKLLAGRSAKKLFALRVPRSFIDRMEKGNPDDPLLRQVLTSQDEFVIAPGFSTDPLEEQHSVVPGLLHKYHNRALLLVKGGCAVNCRYCFRRHFPYAENQGNKRNWQTALEYVAAHPELDEMIFSGGDPLMAKDHELDWLLTQLEAIPHIKRLRIHSRLPIVIPARITEALVECFARSTLQILLVNHINHANEVDETFRQAMAKLRRVGVTLLNQSVLLRDVNDNAQTLANLSNALFDAGVMPYYLHVLDKVQGAAHFMVSDDEARQIMRELLTLVSGYLVPKLAREIGGEPSKTPLDLQLRQQ | 5.05 ± 0.77 | 2.63 ± 0.045 | 1.02 ± 0.14 | 1.61 ± 0.14 | 1.33 | 1.41 ± 0.071 | 1.57 ± 0.15 | 3.35 ± 1.6 | 1.58 ± 0.58 | 2.05 | 1.51 ± 0.33 | 2.71 ± 0.88
MQKFDTRTFQGLILTLQDYWARQGCTIVQPLDMEVGAGTSHPMTCLRELGPEPMAAAYVQPSRRPTDGRYGENPNRLQHYYQFQVVIKPSPDNIQELYLGSLKELGMDPTIHDIRFVEDNWENPTLGAWGLGWEVWLNGMEVTQFTYFQQVGGLECKPVTGEITYGLERLAMYIQGVDSVYDLVWSDGPLGKTTYGDVFHQNEVEQSTYNFEYADVDFLFTCFEQYEKEAQQLLALENPLPLPAYERILKAAHSFNLLDARKAISVTERQRYILRIRTLTKAVAEAYYASREALGFPMCNKDK | 6.13 ± 0.15 | 6.28 ± 1.2 | 6.72 ± 0.52 | 6.54 ± 0.34 | 4.88 ± 0.31 | 3.4 ± 0.69 | 6.44 ± 0.24 |  | 6.04 ± 0.12 |  | 6.78 ± 1.4 | 13.3 ± 0.41
MDKIHAMQLFIKVAELESFSRAADFFALPKGSVSRQIQALEHQLGTQLLQRTTRRVKLTPEGMTYYQRAKDVLSNLSELDGLFQQDATSISGKLRIDIPPGIAKSLLLPRLSEFLYLHPGIELELSSHDRPVDILHDGFDCVIRTGALPEDGVIARPLGKLTMVNCASPHYLTRFGYPQSPDDLTSHAIVRYTPHLGVHPLGFEVASVNGVQWFKSGGMLTVNSSENYLTAGLAGLGIIQIPRIAVREALRAGRLIEVLPGYRAEPLSLSLVYPQRRELSRRVNLFMQWLAGVMKEYLD | 6.09 ± 0.38 | 4.8 ± 0.34 | 2.08 | 3.35 ± 0.51 | 2.76 | 2.32 | 3.43 ± 0.34 | 7.24 ± 3.2 |  |  |  | 
MSDDVALPLEFTDAAANKVKSLIADEDNPNLKLRVYITGGGCSGFQYGFTFDDQVNEGDMTIEKQGVGLVVDPMSLQYLVGGSVDYTEGLEGSRFIVTNPNAKSTCGCGSSFSI [P0ACC3] | 5.22 ± 1.4 |  | 2.03 ± 0.4 | 3.62 ± 0.25 | 1.74 ± 0.059 | 1.62 ± 0.23 | 2.89 ± 0.6 | 3.62 ± 0.69 | 1.71 ± 0.19 | 2.43 ± 0.26 | 2.4 ± 0.14 | 4.84 ± 0.42
MNFLAHLHLAHLAESSLSGNLLADFVRGNPEESFPPDVVAGIHMHRRIDVLTDNLPEVREAREWFRSETRRVAPITLDVMWDHFLSRHWSQLSPDFPLQEFVCYAREQVMTILPDSPPRFINLNNYLWSEQWLVRYRDMDFIQNVLNGMASRRPRLDALRDSWYDLDAHYDALETRFWQFYPRMMAQASRKAL | 5.09 ± 0.57 | 2 ± 0.55 | 2.32 | 3.5 ± 0.25 | 3.83 | 2.18 | 4.23 | 6.12 | 3.3 | 4.2 | 3.04 ± 0.068 | 3.73 ± 1.6
MGIFKAKNPCTKNTIFTTSNTLIYGGFMISLNDFYEQICRKRRDLAYHMSECEWAVDTDVLEEDHPEIRIELGRMREQFWSSEKIGTRVRLYSCDVPWETRHHTVNGQLEIKEEYTELYDPAQECWKNLSSNLTKETFLPLVIEPFSINDIFKAHLMFASISFFWGKSIMSENENVAFKAFHRAAELFDKCIGMTWFNISVCNQKKLSEVRRSAGKKGGKSKAEVYHIIQLKLVELINDSVPNDGWKNKVVAVNELIEPLWDFIQMSEFEINNQNKKYRVATMSQDALVDTILNQWSLKNEDVKQAFDSAVRRKKRSK | 5.49 ± 0.65 |  |  |  |  |  |  |  |  |  |  | 
MRLRKYNKSLGWLSLFAGTVLLSGCNSALLDPKGQIGLEQRSLILTAFGLMLIVVIPAILMAVGFAWKYRASNKDAKYSPNWSHSNKVEAVVWTVPILIIIFLAVLTWKTTHALEPSKPLAHDEKPITIEVVSMDWKWFFIYPEQGIATVNEIAFPANTPVYFKVTSNSVMNSFFIPRLGSQIYAMAGMQTRLHLIANEPGTYDGISASYSGPGFSGMKFKAIATPDRAAFDQWVAKAKQSPNTMSDMAAFEKLAAPSEYNQVEYFSNVKPDLFADVINKFMAHGKSMDMTQPEGEHSAHEGMEGMDMSHAESAH [P0ABJ1] | 5.81 ± 1.2 |  | 6.43 ± 0.55 | 6.06 ± 0.16 | 5.63 ± 0.44 |  | 7.01 ± 0.81 |  | 6.11 ± 0.29 |  | 5.85 ± 0.097 | 11.98 ± 0.095
MTQYSSLLRGLAAGSAFLFLFAPTAFAAEQTVEAPSVDARAWILMDYASGKVLAEGNADEKLDPASLTKIMTSYVVGQALKADKIKLTDMVTVGKDAWATGNPALRGSSVMFLKPGDQVSVADLNKGVIIQSGNDACIALADYVAGSQESFIGLMNGYAKKLGLTNTTFQTVHGLDAPGQFSTARDMALLGKALIHDVPEEYAIHKEKEFTFNKIRQPNRNRLLWSSNLNVDGMKTGTTAGAGYNLVASATQGDMRLISVVLGAKTDRIRFNESEKLLTWGFRFFETVTPIKPDATFVTQRVWFGDKSEVNLGAGEAGSVTIPRGQLKNLKASYTLTEPQLTAPLKKGQVVGTIDFQLNGKSIEQRPLIVMENVEEGGFFGRVWDFVMMKFHQWFGSWFS | 6.35 ± 0.48 | 6.56 ± 0.37 | 6.22 ± 0.69 | 6.18 ± 0.099 | 6.46 ± 0.26 | 3.19 ± 0.077 | 6.19 ± 1.3 | 12.4 ± 0.45 | 5.989 ± 0.057 | 14.9 ± 1.2 | 5.962 ± 0.051 | 13.2 ± 0.29
MRNRTLADLDRVVALGGGHGLGRVLSSLSSLGSRLTGIVTTTDNGGSTGRIRRSEGGIAWGDMRNCLNQLITEPSVASAMFEYRFGGNGELSGHNLGNLMLKALDHLSVRPLEAINLIRNLLKVDTHLIPMSEHPVDLMAIDDQGHEVYGEVNIDQLTTPIQELLLTPNVPATREAVHAINEADLIIIGPGSFYTSLMPILLLKEIAQALRRTPAPMVYIGNLGRELSLPAANLKLESKLAIMEQYVGKKVIDAVIVGPKVDVSAVKERIVIQEVLEASDIPYRHDRQLLHNALEKALQALG | 4.62 ± 0.5 | 4.2 ± 0.13 | 4.3 ± 0.14 | 5.33 ± 0.18 | 4.5 ± 0.17 | 3.16 ± 0.085 | 5.45 ± 0.32 | 10.3 ± 1.7 | 4.6 ± 0.073 | 7.33 ± 0.076 | 6.31 ± 0.59 | 12.1 ± 0.98
MFKFLVLTLGIISCQAYAEDTVIVNDHDISAIKDCWQKNSDDDTDVNVIKSCLRQEYNLVDAQLNKAYGEAYRYIEQVPRTGVKKPDTEQLNLLKKSQRAWLDFRDKECELILSNEDVQDLSDPYSESEWLSCMIIQTNTRTRQLQLYRNSEDFYPSPLTRG |  |  | 6.44 |  |  |  |  |  |  |  |  | 
MTESTSRRPAYARLLDRAVRILAVRDHSEQELRRKLAAPIMGKNGPEEIDATAEDYERVIAWCHEHGYLDDSRFVARFIASRSRKGYGPARIRQELNQKGISREATEKAMRECDIDWCALARDQATRKYGEPLPTVFSEKVKIQRFLLYRGYLMEDIQEIWRNFAD | 5.54 ± 0.24 | 3.94 |  |  |  |  | 4.03 |  |  | 5.32 | 7.34 | 8.52
MSALFLAIPLTIFVLFVLPIWLWLHYSNRSGRSELSQSEQQRLAQLADEAKRMRERIQALESILDAEHPNWRDR [P0AFM9] | 6.51 ± 0.1 | 6.06 | 6.22 ± 0.43 | 5.01 ± 1.7 | 6.04 ± 0.43 | 2.84 ± 0.24 | 5.55 ± 1.4 | 13.4 ± 2.2 | 6.02 ± 0.28 |  | 4.5 ± 1.6 | 12.1 ± 0.9
MTIKNVICDIDGVLMHDNVAVPGAAEFLHGIMDKGLPLVLLTNYPSQTGQDLANRFATAGVDVPDSVFYTSAMATADFLRRQEGKKAYVVGEGALIHELYKAGFTITDVNPDFVIVGETRSYNWDMMHKAAYFVANGARFIATNPDTHGRGFYPACGALCAGIEKISGRKPFYVGKPSPWIIRAALNKMQAHSEETVIVGDNLRTDILAGFQAGLETILVLSGVSSLDDIDSMPFRPSWIYPSVAEIDVI [P0AF24] | 6.46 ± 0.48 | 5.48 ± 0.16 | 5.64 ± 0.15 | 5.88 ± 0.64 | 5.58 ± 0.17 | 3.14 ± 0.041 | 5.71 ± 0.07 | 11.6 ± 1.2 | 5.465 ± 0.045 | 9.89 ± 0.17 | 6 ± 0.44 | 10.4 ± 2.1
MTDLIQRPRRLRKSPALRAMFEETTLSLNDLVLPIFVEEEIDDYKAVEAMPGVMRIPEKHLAREIERIANAGIRSVMTFGISHHTDETGSDAWREDGLVARMSRICKQTVPEMIVMSDTCFCEYTSHGHCGVLCEHGVDNDATLENLGKQAVVAAAAGADFIAPSAAMDGQVQAIRQALDAAGFKDTAIMSYSTKFASSFYGPFREAAGSALKGDRKSYQMNPMNRREAIRESLLDEAQGADCLMVKPAGAYLDIVRELRERTELPIGAYQVSGEYAMIKFAALAGAIDEEKVVLESLGSIKRAGADLIFSYFALDLAEKKILR [P0ACB2] | 5.37 ± 0.27 | 5.78 ± 1.1 | 4.92 ± 0.25 | 5.46 ± 0.23 | 4.71 ± 0.18 | 2.99 ± 0.082 | 5.43 ± 0.14 | 9.8 ± 1.4 | 5.01 ± 0.34 | 8.03 ± 0.4 | 5.96 ± 0.23 | 11.9 ± 0.21
MSEKLQKVLARAGHGSRREIESIIEAGRVSVDGKIAKLGDRVEVTPGLKIRIDGHLISVRESAEQICRVLAYYKPEGELCTRNDPEGRPTVFDRLPKLRGARWIAVGRLDVNTCGLLLFTTDGELANRLMHPSREVEREYAVRVFGQVDDAKLRDLSRGVQLEDGPAAFKTIKFSGGEGINQWYNVTLTEGRNREVRRLWEAVGVQVSRLIRVRYGDIPLPKGLPRGGWTELDLAQTNYLRELVELPPETSSKVAVEKDRRRMKANQIRRAVKRHSQVSGGRRSGGRNNNG | 6.28 ± 0.59 | 5.65 ± 1.1 | 6.02 ± 0.61 | 5.92 ± 0.38 | 4.94 ± 0.081 | 2.92 ± 0.27 | 5.79 ± 0.66 | 10.4 ± 2.1 | 6.18 ± 1.5 | 9.66 ± 0.21 | 5.43 ± 0.43 | 10.6 ± 0.17
MESIQPWIEKFIKQAQQQRSQSTKDYPTSYRNLRVKLSFGYGNFTSIPWFAFLGEGQEASNGIYPVILYYKDFDELVLAYGISDTNEPHAQWQFSSDIPKTIAEYFQATSGVYPKKYGQSYYACSQKVSQGIDYTRFASMLDNIINDYKLIFNSGKSVIPPMSKTESYCLEDALNDLFIPETTIETILKRLTIKKNIILQGPPGVGKTFVARRLAYLLTGEKAPQRVNMVQFHQSYSYEDFIQGYRPNGVGFRRKDGIFYNFCQQAKEQPEKKYIFIIDEINRANLSKVFGEVMMLMEHDKRGENWSVPLTYSENDEERFYVPENVYIIGLMNTADRSLAVVDYALRRRFSFIDIEPGFDTPQFRNFLLNKKAEPSFVESLCQKMNELNQEISKEATILGKGFRIGHSYFCCGLEDGTSPDTQWLNEIVMTDIAPLLEEYFFDDPYKQQKWTNKLLGDS | 5.77 ± 0.24 | 3.81 |  |  | 4 ± 0.19 | 3.13 ± 0.25 | 6.02 ± 2.1 | 8.15 ± 0.33 | 4.41 ± 0.59 |  | 5.12 ± 0.74 | 6.46 ± 0.81
